These results are taken from a protein production outcome set (Wang et al. 2014).

This series is described as follows: label from the status in PepcDB records.

With “MGKGCAASLWPTAIGPRMPRPLSLLPRPAGLMLRLVGSLVLTLWLVWLLADRLALLAPGEVIAALSGLPVWRLAAALLATAVSFWALGRYDGVAHRHFRTGLAARQARLCGMAAIGFSQFVGCGVLSGSFARWRMIGDLTPALALRLTTFVAITFLLALAFWASALCLIAPPLPGLRQTGVAGLALLLPITLVLFLLPRLRLGRFTLRLPSLRALGAILGWAALDLAAAAAVLWVLLPALSWTDLPLLMSAYVLALAAGLLSGAPGGLGAFELTLLALLPAIPGAELMAAVLAYRLIYVALPALAAVPLLLSPPDLRLGRQHRLPRRIHHHPPARPRAETAVVTQSRGYVLSGGFADMAVVETDQSLIMLFDPVCGGRHPDLYLLARRAAQRNLFALVYKCSARVAVSARRAGWRVRHVSDEATLVPADFTIAGSHRRQLRRKLRQAERAGLTVRRASTLPLTQMAAVDRLWQEANGRAWGLTMGRFAPDYLARQAVFLAWRGARLEGFVSFHRSRDEWCLDLMRTHPDAPEGTMHALVATALAATAAARVPRLSLAAVPAGRLGHRFDGLRQFKDSFAPRWQPLYMAAPGWTAIALAAADLARHVQAPPPLAAPDAQPAHDLDEEIEFASLTGT”, the protein production result was “failed”.

For “MGKGDPKKPRGKMSSYAFFVQTCREEHKKKHPDASVNFSEFSKKCSERWKTMSAKEKGKFEDMAKADKARYEREMKTYIPPKGETKKKFKDPNAPKRPPSAFFLFCSEYRPKIKGEHPGLSIGDVAKKLGEMWNNTAADDKQPYEKKAAKLKEKYEKDIAAYRAKGKPDAAKKGVVKAEKSKKKKEEEEDEEDEEDEEEEEDEEDEDEEEDDDDE”, the protein production entry was “failed”.

Consider “MGKKKNKKTEVQQPDPMRKNWIMENMDSGVIYLLESWLKAKSQETGKEISDIFANAVEFNIVLKDWGKEKLEETNTEYQNQQRKLRKTYIEYYDREMK”, for which the protein production entry was “not failed”.

Turning to “MGKKLDALLGRSFKTNKFKSLITLALTRLSILKNQRQARLSQAISDVTELLKLGQHEHAYHRVDQVVKDQNTLDVLFFIHGYFTLCLDRIHLFEHNRDCPEELLEAVSGLLFAASRIGEFPELQEIRNVLISRFGKDLAARSIELRSNCGVDPKIIQKLSTRPPPKEVRMKALKEIAAENNIVLKLDQASTSTEGTTNMQGTSDVSKTKLTSKDGRGEGYGLSDSVKRGKKKYKDVADAAQAAFESAAHAAEAAQAAVELSQFSPRGHDSPGNIGGENSFHGSENKESEQEQEGNDDSSEGEGDVMSESKRSMSDSEDIIDVPVMSFREDPVKLLEKDTIIYDSEEETQPSVETITISKSKDEQNRMVGSNRADTRHVDHMVRSIEDPIMRKAGLKGPVSVRTRQVRGY”, the protein production result is listed as “failed”.

For “MGKKTENLKIDAKKSFLKRIAKNVKVSEGERAVEDILRCIYRNQPISTKKIGQYVKLPLPIVSKVRSILERESLLKRDDKGAVLSKKGIDFVENELGLKLKSDMKCPVCSGRNIVFDEKFEKILKKHKTYAKLRPQVNTMIDQSFATPETATARAAIMADRGDLEGKRVLFVGDDDLASIPTAMTGLCSEVVVLDIDDRLLKLISEVSKKENLNIRTVKWDFKNELPSEFVNKFDTIFTDPPYTLNGAVLFMSRGIEALGDNGILYLAFSHKPVEEYIELQKSINNMNFLIYELIPGFNFYEGTEIIGNTTFLARLVGKNLKKIEVNSEKIYTGELKPTLRYYQCMNCKKIHEVGNKVKRIEDLTCECGGKK”, the protein production result is recorded as “failed”.

Consider “MGKMEPFRATGDGLFIMNEGNFQYGNATLSYYDPETKKVENEIFYRANAMKLGDVAQSMIVRDTIGWVVVNNSHVIFAISTNTFKEVGRITGLTSPRYIHFISDEKAYITQIWDYRIFIVNPKTYQITGYIECPDMTMETGSTEQMVQYGKYVYVNCWSYQNRILKIDTTTDKVVDQLTVGIQPTSLVMDKNFKMWTITDGGYKGSPYGYEEPSLYRIDAETFKIEKQFKFQLGDAPSEVQLNGAGDELYWINKDIWRMSVDEERVPVRPFLKYRDTKYYGLTVSPKNGDVYVADAIDYQQQGMIYRYTEDGELVDEFYVGIIPGAFCWKLEHHHHHH”, for which the protein production result is “not failed”.

Turning to “MGKSDFIKVNVSNSHNDAVAFEVKLAKDLTVAQLKTKLEILTGGCAGTMKVQVFKGDTCVSTMDNNDAQLGYYANSDGLRLHVVDS”, the protein production result was “not failed”.

In the case of “MGLEQAVVDFFNHMGLLNLTVGNVVMIIVGLTLVYLAIRYEMEPLLLLPIGISAVLVNLPLSHMANWPLAPQLPPEIQENIFATISYLSQQYGPPGLFDLIYYLLIKTEVVPLLIFFGLGAMTDFGPMIADPKTALLGAAAQIGVFVAMLVALALGFNLKEAASIGIIGGADGPTTIYLTTKLAPHILSATAVAAYSYMSLVPLIQPPVIKALTTPEERRIRMEQLRPVSKREKILFPIASMIVIGLLVPSAAPLIGMLMIGNLFRESGVVQRLSKAAQEELMNIVTIFLGLGIGSTMRAESFLTPKTLMILALGVVAFASATAGGVLFGKIMMKISGGKINPMIGAAGVSAVPMSARVVQRLASEEDPGNFILMHAMGPNVAGVIGTAVVAGVFLSALG”, the protein production result is given as “failed”.

In the case of “MGLFFAQNMMYNHTITVYDRNYELVKVIPDEVDLSKYGHSRFKGKYRGAPVEASFSHNGKYAWISNYQMYGPGFNNPGSDKCHPSQKTDKSFLYRINTETLKIDRVIPVGSVPKFVATSTDENLILVSNWCSWDLSVVDINQNQEIKRIKLGPYPRGIVVDPASETAYVAVMGSYNIAKVNLRDFSVQWLRNIGSSPRHLNIDPAGKYLYASLNGEGKIAKISLPQGNLVKKIATGNAPRSMVLSANGQTLYVVNYGEDTVSKVRTSDMKVLQKVKVEPDPIGITYDPQTREVWVACYSGNIMIFQDLEHHHHHH”, the protein production result is reported as “not failed”.

In the case of “MGLFQIKPDIHYGANSLDILRTLEMEKVFLVTDENMVKLKVINKVTNILKSRGIEAKVYSDVKPDPTDEEIIKGMLELSAHDPDCIIALGGGSPIDACKSMIYFTNQIKRAMGQNKKPKFIAIPTTSGTGSEVTSYAVVTTKDKKIPLSDSEMLPDIAILNPEFIKTLSPSIIADTGMDVLTHAIEAYVSKSRNLFTNTFAIGAIKTVFADLVSNFENPQLEKERINLQIASCMAGVAFSNAGLGINHSIAHSLGARFHKPHGRLNAVIMSEVIQFNARNKNAAKYYREIVEALGFSPKEDVEGVEILAKAIKMRAAKMGIPNSLSELGIPKEQYFDEMEGIIDQIENDMCTGENPRRFSRIEMKQLLTDLY”, the protein production entry is on record as “not failed”.

In the case of “MGLKIIHNEGIEMKLQLKADLGLLLVTFFWGASILLTKVGLEGIEEYNLIALRFIIAFLLSGLIFYKHLFKIDFKTVKYAFILASVLFIVYIFATFGTKYTSVSNAGFLLCLTVIFIPILSAIFLKHIPEQKVIVGIILTIIGIGLLTLTSEFKIGNGDIFCILSALFYAIHVIITGSVTKHVNSIALGVVQLGFVGLFSLIFSFIIETPKLPSTINSWLIILALSIFCTAVAFIVQVIAQQYTTPTHTGLIFSLEPVFSAGFAFVFTGETLTRKGYLGATLILVSVLIAEVDFKSLLRVNYKKNVE”, the protein production entry is on record as “failed”.

On to “MGLLFFHNDVTDRFNPFIHQQDVYVQIDRDGRHLSPGGTEYTLDGYNASGKKEEVTFFAGKELRKNAYLKVKAKGKYVETWEEVKFEDMPDSVQSKLKLEHHHHHH”, for which the protein production result was “not failed”.

“MGLPLVLDFDLYFCLMKCFIHQQLHLKVGYRLTERFVKTFGEERDGVWFYPRPEDIAARSYDDLRALQLSRRKAEYIVDVSRLIADGTLRLDDLEQMEDGEVMERLTAIRGIGPWTVQNFLLFGLEHHHHHH”: the protein production result was “failed”.

On to “MGLQGQLSDVSSDSIPLMLLSLLAVFINHLRSFLLRLTSKSNPNLPVDDVSIASGLANIIVLADQLSLNRLFSYRCGDGGGGGSDCVVCLSKLKEGEEVRKLECRHVFHKKCLEGWLHQFNFTCPLCRSALVSDDCVSKTQRSVGRDLISCFSLH”, for which the protein production entry is on record as “failed”.

As to “MGLSKVEEKYRKSHEIFLKRLAALPKPEFDNTLPVHEKLDEIKKTVAEHQVTIICGETGSGKTTQLPKICLELGRGVAGLIGHTQPRRLAARSVAERIAEELKSEIGSAVGYKVRFTDHTSRDACVKLMTDGILLAETQTDRYLAAYDTIIIDEAHERSLNIDFLLGYLKQLLPRRPDLKVIITSATIDAERFSRHFNGAPVLEVSGRTYPVEILYRPLTGKDEDDAEVELTDAIVDAADELARHGEGDILVFLPGEREIRETAEALRKSTLRRNDEILPLFARLSHAEQHKIFHPSGAKRRIVLATNVAETSLTVPGIKYVIDTGLARVKRYSARAKVEQLHVEKISQAAARQRSGRCGRVSAGVCIRLFSEEDFNSRPEFTDPEIVRSNLAAVILRMASLNLGDVAAFPFLEMPDSRYINDGFQVLLELGAVEAVLEHHHHHH”, the protein production result is given as “failed”.
